Experimental data published in PMC6881245.

Experiments:
Complement C1q [1] = target: Complement C1q (UniProt P02745)
Complement C1q [2] = target: Complement C1q (UniProt P02745); experiment: flow cytometry on cholesterol crystals; C1q (50 μg/ml in PBS, 1 h RT) bound to cholesterol crystals (1.6 mg/ml), washed; vWF 10 μg/ml in PBS added for 1 h at RT, washed; vWF detected with polyclonal rabbit anti-vWF and anti-rabbit IgG-AF647; BD Accuri 6; n = 5
Complement C1q [3] = target: Complement C1q (UniProt P02745); remark: listed apart in the source

UniProt P02745, sequence (P02745 23-245, chain 1 of 3): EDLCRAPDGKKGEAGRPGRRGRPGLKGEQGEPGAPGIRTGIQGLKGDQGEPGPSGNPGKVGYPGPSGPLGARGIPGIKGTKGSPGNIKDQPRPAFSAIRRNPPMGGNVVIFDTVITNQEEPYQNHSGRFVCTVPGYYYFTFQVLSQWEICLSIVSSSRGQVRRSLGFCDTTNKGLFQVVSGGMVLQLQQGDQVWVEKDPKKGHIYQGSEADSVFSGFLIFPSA
UniProt P02745, sequence (P02746 28-253, chain 2 of 3, further chain): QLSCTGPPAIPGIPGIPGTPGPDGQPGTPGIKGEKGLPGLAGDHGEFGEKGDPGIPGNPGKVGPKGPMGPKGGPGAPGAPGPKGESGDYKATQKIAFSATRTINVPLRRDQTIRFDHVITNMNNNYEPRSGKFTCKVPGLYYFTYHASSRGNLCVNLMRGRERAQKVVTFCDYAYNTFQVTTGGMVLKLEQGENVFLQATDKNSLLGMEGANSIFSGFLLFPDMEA
UniProt P02745, sequence (P02747 29-245, chain 3 of 3, further chain): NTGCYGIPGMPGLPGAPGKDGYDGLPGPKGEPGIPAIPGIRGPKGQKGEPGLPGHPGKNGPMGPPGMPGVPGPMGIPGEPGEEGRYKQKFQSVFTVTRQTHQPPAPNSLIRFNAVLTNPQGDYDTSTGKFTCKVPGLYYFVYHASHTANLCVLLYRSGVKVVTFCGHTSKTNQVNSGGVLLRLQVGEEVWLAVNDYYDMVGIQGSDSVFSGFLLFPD

von Willebrand factor (from UniProt P04275 764-2813) (natural protein)
caspase-1 activity of HMDMs after 18 h with CC-C1q-vWF complexes, percent of CD11c+ cells in the FLICA+ gate; CC-C1q without vWF: 11.54% (7.29–28.38%) (Complement C1q [1]): 9.37%
median gMFI of vWF staining on CC-C1q (Complement C1q [2]): 115000 gMFI
early phagocytosis (30 min) of pHrodo-dyed CC-C1q-vWF complexes by HMDMs, percent of CD11c+ cells in the pHrodo Red Ester+ gate; CC-C1q without vWF: 62, 40% (49.05–68.78%) (Complement C1q [3]): 54.5%
late phagocytosis (18 h) of CC-C1q-vWF complexes by HMDMs, percent of CD11c+ cells in the SSC^high gate; CC-C1q without vWF: 24.05% (22.55–34.60%) (Complement C1q [3]): 13.7%
